Experimental data as given in publication PMC11473951.

Key:
Assay in all cases: SPR
[1] = molecular target: monoclonal antibody 9AD4 (mouse)
[2] = molecular target: human monoclonal antibody R5.016 (human)
[3] = molecular target: human monoclonal antibody R5.034 (human)
Sequence of human monoclonal antibody R5.034 (human) (heavy, as listed by the source, chain 1 of 2): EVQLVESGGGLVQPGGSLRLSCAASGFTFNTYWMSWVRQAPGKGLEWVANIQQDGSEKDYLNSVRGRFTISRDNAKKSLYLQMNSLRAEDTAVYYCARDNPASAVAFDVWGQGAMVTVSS
Sequence of human monoclonal antibody R5.034 (human) (light, as listed by the source, chain 2 of 2): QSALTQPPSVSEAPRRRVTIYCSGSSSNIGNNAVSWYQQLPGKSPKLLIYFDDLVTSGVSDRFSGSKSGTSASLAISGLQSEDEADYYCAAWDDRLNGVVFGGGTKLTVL

Sequence of human monoclonal antibody R5.016 (human) (heavy, as listed by the source, chain 1 of 2): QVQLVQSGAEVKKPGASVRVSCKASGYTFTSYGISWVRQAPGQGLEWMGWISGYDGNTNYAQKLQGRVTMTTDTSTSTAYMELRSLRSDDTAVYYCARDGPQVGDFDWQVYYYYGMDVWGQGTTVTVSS
Sequence of human monoclonal antibody R5.016 (human) (light, as listed by the source, chain 2 of 2): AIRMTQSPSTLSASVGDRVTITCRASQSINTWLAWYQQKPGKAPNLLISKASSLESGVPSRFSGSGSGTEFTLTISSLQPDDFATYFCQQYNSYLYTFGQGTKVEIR
Sequence of monoclonal antibody 9AD4 (mouse) (light, as listed by the source, chain 2 of 2, other chains not shown): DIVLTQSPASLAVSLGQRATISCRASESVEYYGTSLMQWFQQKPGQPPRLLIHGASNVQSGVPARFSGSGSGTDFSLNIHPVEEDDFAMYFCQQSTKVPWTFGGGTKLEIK

## PfRH5 (from UniProt Q8IFM5 25-526) (natural protein)
[1]
  Kd: 1.6 nM
[2]
  Kd: 2.4 nM
[3]
  Kd: 0.094 nM
